Test results reported in patent US20210069341A1 (published 2021).

T1: human FcγRIIb (human, UniProt P31994 46-217)
T1 chain: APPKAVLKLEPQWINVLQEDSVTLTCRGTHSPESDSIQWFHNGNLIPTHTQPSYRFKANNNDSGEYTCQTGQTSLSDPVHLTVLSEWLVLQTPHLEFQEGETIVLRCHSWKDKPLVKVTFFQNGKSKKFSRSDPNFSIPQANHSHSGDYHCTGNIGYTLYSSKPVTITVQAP

T2: human FcγRIIa (human, UniProt P12318 36-218)
T2 chain: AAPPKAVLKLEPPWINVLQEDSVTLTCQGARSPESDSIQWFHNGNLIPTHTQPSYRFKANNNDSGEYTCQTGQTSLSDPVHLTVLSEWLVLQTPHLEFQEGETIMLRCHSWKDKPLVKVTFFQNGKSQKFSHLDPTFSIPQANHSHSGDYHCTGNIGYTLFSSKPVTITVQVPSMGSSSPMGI

T3: human FcγRI (human, UniProt P12314 16-288)
T3 chain: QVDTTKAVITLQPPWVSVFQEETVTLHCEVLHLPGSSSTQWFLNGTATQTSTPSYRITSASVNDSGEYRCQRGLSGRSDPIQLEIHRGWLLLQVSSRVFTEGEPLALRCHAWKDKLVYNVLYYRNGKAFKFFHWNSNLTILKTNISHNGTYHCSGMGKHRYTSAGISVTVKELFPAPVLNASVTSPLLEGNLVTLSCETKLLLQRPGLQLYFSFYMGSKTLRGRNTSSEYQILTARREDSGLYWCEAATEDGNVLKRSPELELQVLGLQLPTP

B1: antibody with the L234F/S239A/S442C triple mutation (Fc receptor affinity analysis) (antibody)
Fc: APEFLGGPAVFLFPPKPKDTLMISRTPEVTCVVVDVSHEDPEVKFNWYVDGVEVHNAKTKPREEQYNSTYRVVSVLTVLHQDWLNGKEYKCKVSNKALPAPIEKTISKAKGQPREPQVYTLPPSRDELTKNQVSLTCLVKGFYPSDIAVEWESNGQPENNYKTTPPVLDSDGSFFLYSKLTVDKSRWQQGNVFSCSVMHEALHNHYTQKSLCLSPGK
B2: antibody with the C239ins cysteine engineered Fc region (Fc receptor affinity analysis) (antibody)
Fc: APELLGGPSCVFLFPPKPKDTLMISRTPEVTCVVVDVSHEDPEVKFNWYVDGVEVHNAKTKPREEQYNSTYRVVSVLTVLHQDWLNGKEYKCKVSNKALPAPIEKTISKAKGQPREPQVYTLPPSRDELTKNQVSLTCLVKGFYPSDIAVEWESNGQPENNYKTTPPVLDSDGSFFLYSKLTVDKSRWQQGNVFSCSVMHEALHNHYTQKSLSLSPGK

How the values were obtained:
[1] = molecular target: T1, human FcγRIIb; assay: binding affinity
[2] = molecular target: T2, human FcγRIIa; assay: binding affinity
[3] = molecular target: T3, human FcγRI; assay: binding affinity
[4] = molecular target: human FcγRIIIa, 158F allele (human, UniProt P08637 17-208); assay: binding affinity
[5] = molecular target: human FcγRIIIa, 158V allele (human, UniProt P08637 17-208); assay: binding affinity
[6] = molecular target: human FcRn protein (human, UniProt P55899 24-297; P61769 21-119); assay: binding affinity; pH 6
Chain of human FcRn protein (P55899 24-297, chain 1 of 2): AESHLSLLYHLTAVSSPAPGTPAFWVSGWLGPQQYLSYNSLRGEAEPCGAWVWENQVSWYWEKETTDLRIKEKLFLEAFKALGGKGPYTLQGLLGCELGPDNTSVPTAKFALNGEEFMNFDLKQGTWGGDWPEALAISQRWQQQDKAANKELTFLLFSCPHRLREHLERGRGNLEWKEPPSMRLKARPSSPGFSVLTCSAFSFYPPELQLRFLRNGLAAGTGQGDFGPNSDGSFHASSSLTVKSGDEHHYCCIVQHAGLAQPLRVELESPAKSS
Chain of human FcRn protein (P61769 21-119, chain 2 of 2): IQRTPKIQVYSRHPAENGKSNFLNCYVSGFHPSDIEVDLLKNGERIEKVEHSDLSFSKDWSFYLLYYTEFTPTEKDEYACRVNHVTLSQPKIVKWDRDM

Chain of human FcγRIIIa, 158V allele (P08637 17-208 F176V): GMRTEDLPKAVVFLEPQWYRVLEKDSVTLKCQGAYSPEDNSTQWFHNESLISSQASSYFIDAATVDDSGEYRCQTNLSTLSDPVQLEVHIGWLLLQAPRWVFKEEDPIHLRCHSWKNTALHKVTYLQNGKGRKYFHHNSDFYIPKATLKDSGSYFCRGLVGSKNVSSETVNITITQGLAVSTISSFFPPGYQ
Chain of human FcγRIIIa, 158F allele (P08637 17-208): as the sequence (P08637 17-208 F176V) above, with V160F counted along it

| Binder | Kd [1] | Kd [2] | Kd [3] | Kd [4] | Kd [5] | Kd [6] |
| --- | --- | --- | --- | --- | --- | --- |
| B1 | 6.31 µM | 2.54 µM | ~0.016 µM | 5.7 µM | 1.46 µM | 0.976 µM |
| B2 | – | – | ~0.133 µM | – | – | 1.05 µM |
